In US20230265151A1, “GIP/GLP1 CO-AGONIST COMPOUNDS” (priority 2020, published 2023):
*1 amine or outer side, *2 acyl side, *3 side chain or, on linkers, in order; H or OH if unused. Where no end group is shown, it is not given here. Side-chain parts run from the residue outwards. [ ]: non-standard residue; d: D form. The star is where a group is joined. αMePhe(2-F) = C[C@](N)(Cc1ccccc1F)C(=O)O; γGlu = O=C(O)[C@H](CCC(=O)[*:2])N[*:1]; C14 diacid = O=C(O)CCCCCCCCCCCCC(=O)*; αMeY = C[C@](N)(Cc1ccc(O)cc1)C(=O)O; αMeL = CC(C)C[C@](C)(N)C(=O)O; Orn = NCCC[C@H](N)C(=O)O; AEEA = NCCOCCOCC(=O)O; Aib = CC(C)(N)C(=O)O

T1: human GIP receptor (human, UniProt P48546 22-466)
T1 construct: whole, on cells; also called hGIPR; human glucose-dependent insulinotropic polypeptide receptor
T1 sequence (looked up): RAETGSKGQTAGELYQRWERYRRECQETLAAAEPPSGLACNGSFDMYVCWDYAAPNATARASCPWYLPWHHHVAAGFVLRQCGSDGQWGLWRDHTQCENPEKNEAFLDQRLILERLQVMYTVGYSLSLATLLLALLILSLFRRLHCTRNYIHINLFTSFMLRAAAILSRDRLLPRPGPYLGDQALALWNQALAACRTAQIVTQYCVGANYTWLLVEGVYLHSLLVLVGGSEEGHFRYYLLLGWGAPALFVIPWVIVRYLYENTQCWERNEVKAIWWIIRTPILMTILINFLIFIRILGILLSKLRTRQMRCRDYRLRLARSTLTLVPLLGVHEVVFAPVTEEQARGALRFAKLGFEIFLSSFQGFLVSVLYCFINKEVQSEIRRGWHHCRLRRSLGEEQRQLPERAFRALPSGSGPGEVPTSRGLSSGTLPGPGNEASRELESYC


How the values were obtained:
human GLP-1 receptor = molecular target: T2, human GLP-1 receptor (human, UniProt P43220 24-463); assay: SPA competition vs [125I]-GLP-1, hGLP-1R membranes
T2 construct: whole, on cells; also called hGLP-1R; human glucagon-like peptide-1 receptor
Protocol: The binding buffer contains 25 mM HEPES, pH 7.4, 2.5 mM CaCl₂, 1 mM MgCl₂, 0.1% (w/v) bacitracin, 0.003% (w/v) TWEEN®-20, and Roche Complete™ Protease Inhibitors without EDTA.
(§1) Data are analyzed using four-parameter (curve maximum, curve minimum, IC₅₀, Hill slope) nonlinear regression routines (Genedata Screener, version 12.0.4, Genedata AG, Basal, Switzerland). […] Values for Kᵢ are reported as the geometric mean, with error expressed as the standard error of the mean (SEM) and n is equal to the number of independent replicates (determined in assays performed on different days). Geometric Means are calculated as follows: […]

human GIP receptor = molecular target: T1, human GIP receptor; assay: SPA competition vs [125I]-GIP, hGIPR membranes
Protocol: The binding buffer contains 25 mM HEPES, pH 7.4, 2.5 mM CaCl₂, 1 mM MgCl₂, 0.1% (w/v) bacitracin, 0.003% (w/v) TWEEN®-20, and Roche Complete™ Protease Inhibitors without EDTA. […] Plates are sealed and mixed on a plate shaker (setting 6) for 1 minute and read with a PerkinElmer Trilux MicroBeta® scintillation counter after 2.5 to 12 hours of incubation/settling time at room temperature.
as §1

| Binder | Ki (human GLP-1 receptor) [nM] | Ki (human GIP receptor) [nM] |
| --- | --- | --- |
| YXEGTXTSDXSIXLDXKAQXEFIXXLIEGGKSSGAPPPS (Aib2, αMeF(2F)6, 4Pal10, αMeL13, Orn16, K17(Z1), Aib20, D-Glu24, αMeY25, K31(Z1), C-term NH2; Z1=AEEA-(γ-Glu)-AEEA-CO-(CH2)12-CO2H) | 2.5 | 0.092 |
| YXEGTXTSDXSIXLDXKAQXEFIXXLIEGGKSSGAPPPS (Aib2, αMeF6, 4Pal10, αMeL13, Orn16, K17(Z1), Aib20, D-Glu24, αMeY25, K31(Z1), C-term NH2; Z1=AEEA2-(γ-Glu)-CO-(CH2)12-CO2H) | 3.08 | 0.0595 |
| YXEGTXTSDXSIXLDXKAQXEFIXXLIEGGKSSGAPPPS (Aib2, αMeF6, αMeF10, αMeL13, Orn16, K17(Z1), Aib20, D-Glu24, αMeY25, K31(Z1), C-term NH2; Z1=AEEA2-(γ-Glu)-CO-(CH2)12-CO2H) | 6.9 | 0.0891 |
| YXEGTXTSDXSIXLDXKAQXEFIXXLIEGGKSSGAPPPS (Aib2, αMeF6, 4Pal10, αMeF13, Orn16, K17(Z1), Aib20, D-Glu24, αMeY25, K31(Z1), C-term NH2; Z1=AEEA2-(γ-Glu)-CO-(CH2)12-CO2H) | 6.1 | 0.0683 |
| YXEGTXTSDXSIXLDXKAQXEFIXXLIEGGKSSGAPPPS (Aib2, αMeF6, 4Pal10, αMeL13, Orn16, K17(Z1), Aib20, D-Glu24, αMeF25, K31(Z1), C-term NH2; Z1=AEEA2-(γ-Glu)-CO-(CH2)12-CO2H) | 3.67 | 0.0621 |
| Y[Aib]EGT[αMePhe(2-F)]TSDV[Aib]I[αMeL]LD[Orn]K([AEEA-AEEA-γGlu-C14 diacid])AQ[Aib]EFI[dE][αMeY]LIEGGK([AEEA-AEEA-γGlu-C14 diacid])SSGAPPPS-NH2 (N-terminus assumed; SMILES CC[C@H](C)[C@H](NC(=O)[C@H](CC(C)C)NC(=O)[C@](C)(Cc1ccc(O)cc1)NC(=O)[C@@H](CCC(=O)O)NC(=O)[C@@H](NC(=O)[C@H](Cc1ccccc1)NC(=O)[C@H](CCC(=O)O)NC(=O)C(C)(C)NC(=O)[C@H](CCC(N)=O)NC(=O)[C@H](C)NC(=O)[C@H](CCCCNC(=O)COCCOCCNC(=O)COCCOCCNC(=O)CC[C@H](NC(=O)CCCCCCCCCCCCC(=O)O)C(=O)O)NC(=O)[C@H](CCCN)NC(=O)[C@H](CC(=O)O)NC(=O)[C@H](CC(C)C)NC(=O)[C@](C)(CC(C)C)NC(=O)[C@@H](NC(=O)C(C)(C)NC(=O)[C@@H](NC(=O)[C@H](CC(=O)O)NC(=O)[C@H](CO)NC(=O)[C@@H](NC(=O)[C@](C)(Cc1ccccc1F)NC(=O)[C@@H](NC(=O)CNC(=O)[C@H](CCC(=O)O)NC(=O)C(C)(C)NC(=O)[C@@H](N)Cc1ccc(O)cc1)[C@@H](C)O)[C@@H](C)O)C(C)C)[C@@H](C)CC)[C@@H](C)CC)C(=O)N[C@@H](CCC(=O)O)C(=O)NCC(=O)NCC(=O)N[C@@H](CCCCNC(=O)COCCOCCNC(=O)COCCOCCNC(=O)CC[C@H](NC(=O)CCCCCCCCCCCCC(=O)O)C(=O)O)C(=O)N[C@@H](CO)C(=O)N[C@@H](CO)C(=O)NCC(=O)N[C@@H](C)C(=O)N1CCC[C@H]1C(=O)N1CCC[C@H]1C(=O)N1CCC[C@H]1C(=O)N[C@@H](CO)C(N)=O) | 1.26 | 0.126 |
| YXEGTXTSDVXIXLDXKAQXEFIXXLIEGGKSSGAPPPS (Aib2, αMeF(2F)6, αMeS11, αMeL13, Orn16, K17(Z1), Aib20, D-Glu24, αMeY25, K31(Z1), C-term NH2; Z1=AEEA2-(γ-Glu)-CO-(CH2)12-CO2H) | 1.17 | 0.161 |
| YXEGTXTSDXSIXLDXKAQXEFIXXLIEGGKSSGAPPPS (Aib2, αMeF(2F)6, 4Pal10, αMeL13, Orn16, K17(Z1), Aib20, D-Glu24, αMeY25, K31(Z1), C-term NH2; Z1=AEEA2-(γ-Glu)-(10-(4-carboxyphenoxy)decanoyl)) |  | 0.0446 |
| YXEGTXTSDXSIXLDXKAQXEFIXXLIEGGKSSGAPPPS (Aib2, αMeF(2F)6, αMeV10, αMeL13, Orn16, K17(Z1), Aib20, D-Glu24, αMeY25, K31(Z1), C-term NH2; Z1=AEEA2-(γ-Glu)-CO-(CH2)12-CO2H) | 1.16 | 0.0832 |
| YXEGTXTSDXSIXLDXKAQXEXIXXLIEGGKSSGAPPPS (Aib2, αMeF(2F)6, 4Pal10, αMeL13, Orn16, K17(Z1), Aib20, 3ClPhe22, D-Glu24, αMeY25, K31(Z1), C-term NH2; Z1=AEEA2-(γ-Glu)-CO-(CH2)12-CO2H) | 1.59 | 0.132 |
| YXEGTXTSDXSIXLDXKAQXEXIXXLIEGGKSSGAPPPS (Aib2, αMeF(2F)6, 4Pal10, αMeL13, Orn16, K17(Z1), Aib20, 3FPhe22, D-Glu24, αMeY25, K31(Z1), C-term NH2; Z1=AEEA2-(γ-Glu)-CO-(CH2)12-CO2H) | 1.52 | 0.161 |
| YXEGTXTSDXSIXLDXKAQXEFIXXLIEGGPSSGAPPPSK (Aib2, αMeF(2F)6, 4Pal10, αMeL13, Orn16, K17(Z1), Aib20, D-Glu24, αMeY25, K40(Z1), C-term NH2; Z1=AEEA2-(γ-Glu)-CO-(CH2)12-CO2H) | 3.13 | 0.0807 |
| YXEGTXTSDXSIXLDXKAQXEFIKXLIEGGPSSGAPPPS (Aib2, αMeF(2F)6, 4Pal10, αMeL13, Orn16, K17(Z1), Aib20, K24(Z1), αMeY25, C-term NH2; Z1=AEEA2-(γ-Glu)-(10-(4-carboxyphenoxy)decanoyl)) | 0.777 | 0.0314 |
| YXEGTXTSDXXIXLDXQAQXKFIXXLIKGGPSSGAPPPS (Aib2, αMeF(2F)6, 4Pal10, Aib11, αMeL13, Orn16, Aib20, K21(Z1), D-Glu24, αMeY25, K28(Z1), C-term NH2; Z1=AEEA2-(γ-Glu)-CO-(CH2)12-CO2H) | 0.964 | 0.064 |
| YXEGTXTSDXXIXLDXQAQXKFIXXLIEGGPSSGAPPPSK (Aib2, αMeF(2F)6, 4Pal10, Aib11, αMeL13, Orn16, Aib20, K21(Z1), D-Glu24, αMeY25, K40(Z1), C-term NH2; Z1=AEEA2-(γ-Glu)-CO-(CH2)12-CO2H) | 0.947 | 0.0912 |
| YXEGTXTSDXXIXLDXKAQXEFIXXLIKGGPSSGAPPPS (Aib2, αMeF(2F)6, 4Pal10, Aib11, αMeL13, Orn16, K17(Z1), Aib20, D-Glu24, αMeY25, K28(Z1), C-term NH2; Z1=AEEA-(γ-Glu)-CO-(CH2)12-CO2H) | 2.17 | 0.0747 |
| YXEGTXTSDXXIXLDXKAQXEFIXXLIEGGPSSGAPPPSK (Aib2, αMeF(2F)6, 4Pal10, Aib11, αMeL13, Orn16, K17(Z1), Aib20, D-Glu24, αMeY25, K40(Z1), C-term NH2; Z1=AEEA-(γ-Glu)-CO-(CH2)12-CO2H) | 2.07 | 0.091 |
